B1: TPR t1 (parent)
chain: GACCAAUCUGCCCUCAGAGCUCGAGAACAUCUUCGGAUGCAGAGGAGGCAGGCUUCGGUGGCGCGAUAGCGCCAACGUCCUCAACCUCCAAUGCAUCCCACCACAUGAUGAUGCCUGAAGAGCCUUGGUUUUUUG

Variants of: B1
Test: polymerase ribozyme fitness, log enrichment relative to wild type (log ratio); higher = more active; in vitro selection for triplet polymerase activity
Summary of the method: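 A single round of triplicate in vitro selection, including frozen incubation at −7 °C, was applied to PCR-built, transcribed mutant libraries of each subunit of a heterodimeric triplet polymerase ribozyme. Illumina sequencing of input and output libraries retained genotypes with ≥10 input reads and ≥1 read per output. Fitness is the base-2 logarithm of genotype enrichment divided by wild-type enrichment, from inverse-variance-weighted replicate averages.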

Row | Variant | polymerase ribozyme fitness (log ratio)
1 | G39A G61A C89A G120C | -1.19
2 | G39A G69A A121U G128U | -3.24
3 | G39A G69C | -0.611
4 | G39A G69U C99A | -4.04
5 | G39A G71A C86A A100C | -4
6 | G39A G110C | -4.65
7 | G39A G135U | -1.41
8 | G39A U81A C88U | -0.679
9 | G39A U96C | -0.886
10 | G39C A43G C124U | -0.831
11 | G39C A43U A90G C114U U125A | -2.64
12 | G39C A50C C56G G71A G77A A90U U96A | -4.32
13 | G39C A66U A75G C88G C123U | -3.46
14 | G39C C53A U54G G120U | 0.139
15 | G39C C56A | -0.765
16 | G39C C62A | -0.902
17 | G39C C70U C101A | -2.67
18 | G39C C72U G93U A121U | 0.127
19 | G39C C72U U129G | -2.2
20 | G39C C114A | -1.94
21 | G39C G44U | -2.29

Row | Variant | polymerase ribozyme fitness (log ratio)
22 | G39C G47C | -3.08
23 | G39C G48U C62U | -1.74
24 | G39C G65U | -6.02
25 | G39C G69A G127U | -3.35
26 | G39C G77C C115U G128A | -4.5
27 | G39C G93A | -2.3
28 | G39C G135U | -0.712
29 | G39C U55A C56A U112C | -0.17
30 | G39C U55G A119U | -0.691
31 | G39C U78A C94A C123A C124A G128A | -0.0279
32 | G39C U116C | -2.01
33 | G39U A41G G45A A119G U132G G135U | -2.12
34 | G39U A41U A43U G60U C82A C114A | -4.19
35 | G39U A43G | -1.75
36 | G39U A66U A119G | -0.493
37 | G39U A74G | -1.85
38 | G39U A90G C98U C102A | -4.8
39 | G39U A90G C102A G117U A121C | -5.4
40 | G39U A103C C114U A119U G120A U130A | -4.34
41 | G39U C40G | -3.47
42 | G39U C49A | -0.99

Row | Variant | polymerase ribozyme fitness (log ratio)
43 | G39U C49A G71U G127A | -2.56
44 | G39U C49G A118U | -0.724
45 | G39U C62A | -2.16
46 | G39U C64U A84C G122A C124A | 0.97
47 | G39U C64U A91C C123A | -1.57
48 | G39U C73U G77A | -1.39
49 | G39U C76U C79G | -1.98
50 | G39U C79U | -0.704
51 | G39U C79U C88A G110A G117U | -6.66
52 | G39U C85G | -2.87
53 | G39U C85U | -0.997
54 | G39U C88U C94U U106G A121C | -0.0673
55 | G39U C97A | -5.98
56 | G39U C115U U131A | -2.02
57 | G39U C123A | -0.855
58 | G39U C123G U126C | -0.255
59 | G39U G42A G57U G117A C124G | -3.25
60 | G39U G42C C94U U106A U112A | -0.723
61 | G39U G44C C72U | -1.9
62 | G39U G45U C72A | -2.22
63 | G39U G47U | -2.97

Row | Variant | polymerase ribozyme fitness (log ratio)
64 | G39U G52A U55C C56A C80U | -1.08
65 | G39U G57A C80A | -2.91
66 | G39U G58A A121U | 1.6
67 | G39U G60A | 0.0157
68 | G39U G60U | -0.635
69 | G39U G61A C72G A103U | -5.55
70 | G39U G61U C73U U106A | -1.81
71 | G39U G61U G110U | -2
72 | G39U G63A A100U G120U | -2.94
73 | G39U G63A G93U | -3.17
74 | G39U G65A | -6.81
75 | G39U G107U G117U | -6.23
76 | G39U G113C | -2.84
77 | G39U G113U | -3.59
78 | G39U G117C | -4.79
79 | G39U G120U | -0.816
80 | G39U U54A | -1.76
81 | G39U U54G C73G | -4.41
82 | G39U U55A G71A C94G C102A G113U | -5.82
83 | G39U U59A C98U A121G | 0.547

— the RNAGym collection of RNA variant scans (doi:10.1073/pnas.2313332121)
